For assay [1], the target named is T1, 重组人BLyS蛋白 (recombinant human BLyS protein) (human, UniProt Q9Y275 134-285).
T1 construct: Recombinant human BLyS coated on hydrophobic ELISA plates; also called B淋巴细胞刺激因子; BAFF
Kind of assay: Blocking ELISA, human BLyS coated, competition with human BR3.

The target of assay [2] is 人可溶性BLyS (human soluble BLyS) (human, UniProt Q9Y275 134-285). Kind of assay: cell-based or functional assay.

Numbering of substitutions follows the chain as printed.

Sequence of 人可溶性BLyS (human soluble BLyS) (Q9Y275 134-285 limits assumed): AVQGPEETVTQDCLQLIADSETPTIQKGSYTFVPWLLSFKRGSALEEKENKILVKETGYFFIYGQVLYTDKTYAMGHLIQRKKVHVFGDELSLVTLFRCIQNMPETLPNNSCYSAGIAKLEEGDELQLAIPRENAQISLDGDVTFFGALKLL
T1 sequence (Q9Y275 134-285 limits assumed): as above

B1: H482L472 (antibody, human IgG1, kappa, V domains shown)
VH: EVQLVESGGGLVQPGGSLRLSCAASGFTFSDAWMDWVRQAPGKGLEWVGEIRNKANNHATYQAESVKGRFTISRDDSKNSVYLQMNSLKTEDTAVYYCTRAPFDLLVRRGYYIMDYWGQGTLVTVSS
VL: DIQMTQSPSSLSASVGDRVTITCRTSQDISIYLNWYQQKPGKAPKLLIYYTSRLRSGVPSRFSGSGSGTDFTLTISSLQPEDFATYFCQQGSTLPWTFGGGTKLEIKR
notes: also called UBP1213sc (its formulation); UBP1213
As to B1, the IC50 in assay [1] was found to be 1.24 µg/mL. Also, in assay [2], the “IC50 of inhibition of the NF-κB signal downstream of human BLyS binding TACI (luciferase reporter gene assay)” value is 0.0376 µg/mL.

B2: H484L474 (antibody, human IgG1, kappa, V domains shown)
VH: B1 VH with G49A, N79S, K89R, T90A
VL: B1 VL with L11V
For the molecule B2, in assay [1], the half-maximal inhibitory concentration (IC50) came out at 1.27 µg/mL. For the same molecule, in assay [2], the “IC50 of inhibition of the NF-κB signal downstream of human BLyS binding TACI (luciferase reporter gene assay)” value is 0.0315 µg/mL.

B3: H483L473 (antibody, human IgG1, kappa, V domains shown)
VH: B1 VH with Q13K, N79S, S80T
VL: B1 VL with L73F, F83I
In the case of B3, the IC50 in assay [1] was determined as 0.858 µg/mL. For the same molecule, the “IC50 of inhibition of the NF-κB signal downstream of human BLyS binding TACI (luciferase reporter gene assay)” value in assay [2] came to 0.0293 µg/mL.

The record behind these values is patent CN115232208A (SHANGHAI JUNSHI BIOSCIENCES CO LTD; JUNMENG BIOSCIENCES CO …, dated 2022).
